Measurements published in patent publication US20190248902A1 (published 2019).
Numbering of substitutions follows the chain as printed.

T1: recombinant, soluble human ASGR-1 (human, UniProt P07306 62-291)
T1 construct: biotinylated in the binning assay; also called soluble huASGR-1; Soluble ASGR-1 (Amgen)
T1 sequence: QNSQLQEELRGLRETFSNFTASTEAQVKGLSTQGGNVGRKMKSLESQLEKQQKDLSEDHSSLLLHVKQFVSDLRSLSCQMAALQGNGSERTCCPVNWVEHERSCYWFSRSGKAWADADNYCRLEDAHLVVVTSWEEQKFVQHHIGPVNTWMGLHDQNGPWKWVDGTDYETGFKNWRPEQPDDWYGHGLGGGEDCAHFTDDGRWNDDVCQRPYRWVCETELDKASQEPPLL

B1: 74H7 (antibody, V domains shown)
VH: QVQLQQWGAGLLKPSEPLSLTCAVYGGSFSGPYWSWIRQPPGKGLEWIGEINHSGSTNYNPSLKSRVTISVDTSKNQFSLKLTSVTAADTAVYYCARDYGGLDVWGQGTTVTVSS
VL: ELVLTQSPGTLSLSPGERATLSCRASQNIYSSYLAWYQQKPGQAPRLLIYGASSRATGIPDRFSGSGSGTDFTLTISRLEPEDFAVYCCQQYESSPWTFGQGTKVEIK
notes: hybridoma mAb
B2: 74B2 (antibody, V domains shown)
VH: B1 VH with K64T, T90S
VL: B1 VL
notes: hybridoma mAb
B3: 85F7 (antibody, V domains shown)
VH: B1 VH
VL: B1 VL with L2P, S32N
notes: hybridoma mAb
B4: 198B9 (antibody, V domains shown)
VH: QVQLVESGGGVVQPGRSLRLSCAASGFTFSNYGMHWVRQAPGKGLEWVAIIWFDGSNKYYVDSVKGRFTISRDNSKNTLFLQMSSLRAEDTAVYYCAREWLQFRYYYGMDVWGQGTTVTVSS
VL: DIQMTQSPSSLSASVGDRVTITCRASQGIRKDLGWYQQKPGKAPKRLIYAASSLQSGVPSRFSGSGSGTEFTLTISSLQPEDFATYVCLQHYRYPFTFGPGTKVDFK
notes: hybridoma mAb
B5: 199A7 (antibody, V domains shown)
VH: B4 VH with V61A
VL: B4 VL
notes: hybridoma mAb
B6: 218G4 (antibody, V domains shown)
VH: QVQLVESGGGVVQPGRSLRLSCAASGFTFSSYGLHWVRQAPGKGLEWVAVIWYDGSNKYYADSVKGRFTISRDNSKNTLYLQMNSLRVEDTAVYYCANWYYYYYGMDVWGQGTTVTVSS
VL: QSVLTQPPSVSAAPGQKVTISCSGSSSNIGNNYVSWYQQLPGTAPKLLLYDSNKRPSGIPARFSGSKSGTSATLGITGLQTGDEADYYCGTWDSSLNTVVFGGGTKLTVL
notes: hybridoma mAb
B7: 149A1 (antibody, V domains shown)
VH: EVQLVESGGGLVQPGGSLRLSCAASGFTFSSYNMNWVRQAPGKGLEWVSYISRSSNTKHYADSVKGRFTISRDNAKNSLYLQMNSLRDEDTAVYYCARDRSGSYGYFYYYGLDVWGQGTTVTVSS
VL: not shown
notes: hybridoma mAb
B8: 146A8 (antibody, V domains shown)
VH: B7 VH with Q3K, G16E, A23V, S31N, H59Y, K65R
VL: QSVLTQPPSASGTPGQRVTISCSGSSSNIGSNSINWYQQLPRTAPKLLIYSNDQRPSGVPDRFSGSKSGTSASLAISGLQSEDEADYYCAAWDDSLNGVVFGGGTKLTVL
notes: hybridoma mAb
B9: 146B6 (antibody, V domains shown)
VH: B7 VH with N84D
VL: not shown
notes: hybridoma mAb
B10: 172B12 (antibody, V domains shown)
VH: QVQLVQSGAEVKKPGASVTVSCKASGYTFRSYYMYWVRQAPGQGLEWVGTINPSGGSTDYAQKFQGRVTMTRDTSTSTLYMELNSLRSEDTAVYYCASGWELNYWGQGTLVTVSS
VL: SSELTQDPAVSVALGQTVRITCQGDSLRNYYASWYQQKPGQAPILVIYTKNSRPSGIPDRFSGSTSGNTASLTITGAQAEDEADYYCNSRDSSGNHVVFGGGTKLTVL
notes: hybridoma mAb
B11: 172C3 (antibody, V domains shown)
VH: B10 VH with T19K, D59N
VL: B10 VL with A32V, A77T
notes: hybridoma mAb
B12: 193E7 (antibody, V domains shown)
VH: QVQLQQWGAGLLKPSETLSLTCAVYGGSFSGYFWTWIRQPPGKGLEWIGEINHSGSTNYNPSLKSRVTISVDTSKNQFSLKLSSVTAADTAVYYCARDYGADYWGQGTLVAVSA
VL: B4 VL with K31N, A50S, S56R, V87Y, Y92K, F96L, P100G, D105E, F106I
notes: hybridoma mAb
B13: 199E3 (antibody, V domains shown)
VH: B12 VH
VL: B4 VL with K31N, Y49S, A50S, S56R, V87Y, Y92K, F96L, P100G, D105E, F106I
notes: hybridoma mAb
B14: 226F9 (antibody, V domains shown)
VH: QVQLVQSGAEVKKPGASVKVSCKASGYTFTGYYIHWVRQAPGQGLEWMGWINPYSGDTKYAQKFQGRVTMTRATSISTAYMELSRLRFDDTAVFYCARDWGGYSSYYYGMDVWGQGTTVTVSS
VL: DIVMTQTPLSLSVTPGQPASISCKSSQSLLHSDGKTFLYWYLQKPGQPPQLLIYEISNRFSGVPDRFSGSGSGTDFTLKISRVEAEDVGIYYCMQSTQLPRTFGQGTKVEIK
notes: hybridoma mAb
B15: 224G1 (antibody, V domains shown)
VH: B14 VH with K59N, A73D
VL: B14 VL with S26G, Y39S, Y91F
notes: hybridoma mAb
B16: 227C1 (antibody, V domains shown)
VH: B14 VH with I34T, D57G, K59N, A73D, F94Y
VL: B14 VL
notes: hybridoma mAb
B17: 227F2 (antibody, V domains shown)
VH: B14 VH with Q3H, A73D
VL: B14 VL
notes: hybridoma mAb
B18: 65C12 (antibody, V domains shown)
VH: EVQLVESGGGLVKPGGSLRLSCAASGFTFRSFSLNWVRQAPGKGLEWVSSISSSSSYIYYADSVKGRFTISRDNAKNSLYLQMNSLRAEDTAVYYCARDAYSHYWGQGTLVTVSS
VL: EIVMTQSPATLSVFPGEGATLSCRASQSVSINLAWYQQKPGQAPRLLIYGASTRATGIPARFNASGSGTEFTLSISSLQSENFAVYYCQQYNTWPLTFGGGTKVEIK
notes: hybridoma mAb
B19: 176H4 (antibody, V domains shown)
VH: QVQLVESGGGVVQPGRSLRLSCAASGFTFSSYGMHWVRQAPGKGLEWVAIIWYDGSYKYYADSVKGRFTISRDNSKNTLYLQMSSLRAEDTAVYYCARDAHDFWSGYFAYWGQGALVTVSS
VL: B14 VL with S32G, F37Y, I56V, T97I, L99I, R101W, K108R
notes: hybridoma mAb
B20: 194C10 (antibody, V domains shown)
VH: QVQLQQWGAGLLKPSETLSLTCAVSGGSFRYYYWSWIRQPPGKGLEWFGEINHSGSTNYNPSLKSRVTISIDTSKNQFSLKLRSVTAADTAVYYCARDYGAFDIWGQGTMVTVSS
VL: EIVLTQSPGTLSLSPGERATLSCRASPSVNSGYLAWYQQKPGQTPRLLIFGASSRATGIPDRFSASGSGADFTLTISRLEPEDFAVYFCQQYESSPWTFGQGTKVEIK
notes: hybridoma mAb
B21: 196F4 (antibody, V domains shown)
VH: EVQLLESGGGLVQPGGSLRFSCAASGFTFSSCAMTWVRQAPGKGLEWVSAISGSGGSTYYADSVKGRFTISRDNSKNTLYLQMNSLRAEDTAVYYCAKVGGLTGSYYYYGMDVWGQGTTVTVSS
VL: DFQMIQSPSSLSASVGDRVTITCRASQRIHSYLNWYQQKPGKAPKLLIYTASSLQGGVPSRFSGSGSGTDFTLTISSLQPEDFATYYCQQSYGSPLTFGGGTKVEIK
notes: hybridoma mAb
B22: 198D2 (antibody, V domains shown)
VH: QVQLVESGGGVVQPGRSLRLSCAASGFTFRSYGMHWVRQAPGKGLEWVAVIIYDGSYKYYADSVKGRFTISRDNSKNTLYLQMNSLRAEDTAVYYCARTYSGGMDVWGQGTTVTVSS
VL: B6 VL with N31S, L47V, L49I, S52N, A61D, S95R, T98V, V99G
notes: hybridoma mAb

The binders below were run against T1, recombinant, soluble human ASGR-1 (assay: Octet BLI dissociation, pH 7.4 minus calcium).
Outline: (§1)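 Antibodies were captured on anti-human Fc biosensors, and soluble ASGR-1 (6 ug/ml) was associated for 2 min in Tris buffer containing 1 mM CaCl2 at pH 7.4, followed by 10 min dissociation under each test condition. The signal at the end of association was set as 100%. Percent ASGR-1 still bound after 1 min of dissociation was compared with the pH 7.4 plus calcium control, and >10% extra dissociation was scored as sensitive.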
For B1, the “% Change Compared to pH 7.4 + Calcium” value was 1%. B2 was tested, and the “% Change Compared to pH 7.4 + Calcium” value was 8%. With B3 the “% Change Compared to pH 7.4 + Calcium” value was 2%. B4 was tested, and the “% Change Compared to pH 7.4 + Calcium” value was 3%. For B5, the “% Change Compared to pH 7.4 + Calcium” value was 1%. With B6 the “% Change Compared to pH 7.4 + Calcium” value was 1%. B7 was tested, and the “% Change Compared to pH 7.4 + Calcium” value was 2%. B8 was tested, and the “% Change Compared to pH 7.4 + Calcium” value was 2%. B9 was tested, and the “% Change Compared to pH 7.4 + Calcium” value was 2%. With B10 the “% Change Compared to pH 7.4 + Calcium” value was -14%. For B11, the “% Change Compared to pH 7.4 + Calcium” value was -9%. In the case of B12, the “% Change Compared to pH 7.4 + Calcium” value is reported as -9%. In the case of B13, the “% Change Compared to pH 7.4 + Calcium” value is reported as -5%. In the case of B14, the “% Change Compared to pH 7.4 + Calcium” value is reported as 100%. In the case of B15, the “% Change Compared to pH 7.4 + Calcium” value is reported as 77%. B16 was tested, and the “% Change Compared to pH 7.4 + Calcium” value was 100%. For B17, the “% Change Compared to pH 7.4 + Calcium” value was 80%. With B18 the “% Change Compared to pH 7.4 + Calcium” value was 13%. B19 was tested, and the “% Change Compared to pH 7.4 + Calcium” value was 2%. For B20, the “% Change Compared to pH 7.4 + Calcium” value was 2%. For B21, the “% Change Compared to pH 7.4 + Calcium” value was -8%. With B22 the “% Change Compared to pH 7.4 + Calcium” value was -8%.

Each binder was assayed against T1, recombinant, soluble human ASGR-1 (assay: Octet BLI dissociation, pH 5.6 minus calcium).
Outline: as §1
For B1, the “% Change Compared to pH 7.4 + Calcium” value was 1%. For B2, the “% Change Compared to pH 7.4 + Calcium” value was -5%. For B3, the “% Change Compared to pH 7.4 + Calcium” value was 2%. B4 was tested, and the “% Change Compared to pH 7.4 + Calcium” value was 11%. For B5, the “% Change Compared to pH 7.4 + Calcium” value was 10%. With B6 the “% Change Compared to pH 7.4 + Calcium” value was 0%. For B7, the “% Change Compared to pH 7.4 + Calcium” value was 9%. With B8 the “% Change Compared to pH 7.4 + Calcium” value was 25%. For B9, the “% Change Compared to pH 7.4 + Calcium” value was 13%. With B10 the “% Change Compared to pH 7.4 + Calcium” value was -13%. For B11, the “% Change Compared to pH 7.4 + Calcium” value was 0%. In the case of B12, the “% Change Compared to pH 7.4 + Calcium” value is reported as -4%. B13 was tested, and the “% Change Compared to pH 7.4 + Calcium” value was -4%. B14 was tested, and the “% Change Compared to pH 7.4 + Calcium” value was 77%. B15 was tested, and the “% Change Compared to pH 7.4 + Calcium” value was 65%. In the case of B16, the “% Change Compared to pH 7.4 + Calcium” value is reported as 73%. For B17, the “% Change Compared to pH 7.4 + Calcium” value was 100%. With B18 the “% Change Compared to pH 7.4 + Calcium” value was 23%. In the case of B19, the “% Change Compared to pH 7.4 + Calcium” value is reported as 26%. For B20, the “% Change Compared to pH 7.4 + Calcium” value was 16%. For B21, the “% Change Compared to pH 7.4 + Calcium” value was -6%. B22 was tested, and the “% Change Compared to pH 7.4 + Calcium” value was -28%.

The binders below were run against T1, recombinant, soluble human ASGR-1 (assay: Octet BLI dissociation, pH 5.6 plus calcium).
Outline: as §1
For B1, the “% Change Compared to pH 7.4 + Calcium” value was -2%. In the case of B2, the “% Change Compared to pH 7.4 + Calcium” value is reported as -9%. In the case of B3, the “% Change Compared to pH 7.4 + Calcium” value is reported as -2%. In the case of B4, the “% Change Compared to pH 7.4 + Calcium” value is reported as 2%. In the case of B5, the “% Change Compared to pH 7.4 + Calcium” value is reported as 1%. For B6, the “% Change Compared to pH 7.4 + Calcium” value was -4%. With B7 the “% Change Compared to pH 7.4 + Calcium” value was -7%. For B8, the “% Change Compared to pH 7.4 + Calcium” value was -9%. In the case of B9, the “% Change Compared to pH 7.4 + Calcium” value is reported as -5%. B10 was tested, and the “% Change Compared to pH 7.4 + Calcium” value was -27%. For B11, the “% Change Compared to pH 7.4 + Calcium” value was -26%. With B12 the “% Change Compared to pH 7.4 + Calcium” value was -9%. With B13 the “% Change Compared to pH 7.4 + Calcium” value was -4%. With B14 the “% Change Compared to pH 7.4 + Calcium” value was 51%. B15 was tested, and the “% Change Compared to pH 7.4 + Calcium” value was 41%. B16 was tested, and the “% Change Compared to pH 7.4 + Calcium” value was 54%. For B17, the “% Change Compared to pH 7.4 + Calcium” value was 50%. For B18, the “% Change Compared to pH 7.4 + Calcium” value was 0%. With B19 the “% Change Compared to pH 7.4 + Calcium” value was -4%. With B20 the “% Change Compared to pH 7.4 + Calcium” value was 10%. B21 was tested, and the “% Change Compared to pH 7.4 + Calcium” value was -5%. For B22, the “% Change Compared to pH 7.4 + Calcium” value was -30%.
